From patent US9469685 (UNIVERSITY OF CHICAGO, dated 2016) come the findings set out here.

The target of the assay is HA of the 1918 pandemic strain, A/Brevig Mission/1/1918 (H1N1) (influenza A virus A/Brevig …, UniProt Q9WFX3 18-529). Nature of the assay: ELISA (FIG. 3B, FIG. 8A). Background: ELISA stands for enzyme-linked immunosorbent assay.
HA of the 1918 pandemic strain, A/Brevig Mission/1/1918 (H1N1), sequence (Q9WFX3 18-529 limits assumed): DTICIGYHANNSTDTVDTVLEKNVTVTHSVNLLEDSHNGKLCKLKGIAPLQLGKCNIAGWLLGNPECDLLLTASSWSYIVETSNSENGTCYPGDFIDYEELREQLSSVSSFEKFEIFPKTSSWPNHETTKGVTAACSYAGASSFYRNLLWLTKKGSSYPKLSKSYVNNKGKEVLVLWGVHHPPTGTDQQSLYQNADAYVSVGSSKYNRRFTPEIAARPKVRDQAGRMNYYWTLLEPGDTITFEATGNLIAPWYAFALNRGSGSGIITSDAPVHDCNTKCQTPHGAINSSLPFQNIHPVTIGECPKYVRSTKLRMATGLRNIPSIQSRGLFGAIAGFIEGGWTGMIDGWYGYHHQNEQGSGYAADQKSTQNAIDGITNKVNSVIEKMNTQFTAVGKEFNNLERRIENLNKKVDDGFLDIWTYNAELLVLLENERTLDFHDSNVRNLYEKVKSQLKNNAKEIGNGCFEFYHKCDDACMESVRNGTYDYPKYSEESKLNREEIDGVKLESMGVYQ

B1: 70-5B03 (antibody, V domains shown)
VH: QVQLVQSGAEVKKPGSSVKVSCKASGGTFRNFAVSWVRQAPGQGPEWMGGIIAIFGTAKYAQKFQGRVTISADESTRIVQMELSSLRSDDTAIYYCASSSGSYYGDYFDYWGQGTLVTVSS
VL: EIVMTQSPATLSVSPGERATLSCRASQSVSSNLAWYQQTPGQAPRLLIYAASSRATGIPARFSGSGSGTEFTLSISSLQPEDFAVYYCQQYNNWPRTFGQGTKVEIK
Consider B1, for which the binding result is “binds”.
